Numbering of substitutions follows the chain as printed. Names and notes keep the numbering of the source. A value given as a limit tells only on which side of the number the result lay.

This assay deals with BQ.1.1 spike protein (SARS-CoV-2 variant BQ.1.1, UniProt P0DTC2 14-1273). The assay can be described thus: cell-based or functional assay.

B1: Ab40 (10x-L8N-c32) (antibody, V domains shown)
VH: QVQLQESGPRLVKPSETLSLTCTVSGGSISSYYWTWIRQPPGKGLEWIGYISYSGSTNYNPSLRSRVTMSVDTSKNQFSLDLNSVTAADTAVYYCATDGGGFYPGYFPHWGQGTLVTVSS
VL: DIQMTQSPSSLSASVGDRVTITCRASQSISDYVNWYQQKPGRAPRLLIYAPSTLQSGVPSRFSGSGSGTDFTLTISNLQPEDFGTYFCQQSYSTPPYTFGQGTKVEMK
With B1, the “IC50 (pVNT)” value is no more than 550 ng/ml.

B2: Ab32 (10x-L8N-c12) (antibody, V domains shown)
VH: EVQLVESGGGLVQPGGSLRVTCVASGFAVRTNFMTWVRQAPGKGLQCVSVIYGDGSTYYADSVKGRFSISRDNSKNTVYLQMNSLSAEDTAVYYCAREVSHAFDLWGPGTMVTVSS
VL: DIQLTQSPSTLSASLGDRVTITCRASQSISGWLAWYQQKPGRAPQLLIYKASLLETGVPSRFSGSGSGTVFTLTISSLQPDDFATYYCQQYDTYSPYTFGQGTKLEIK
Consider B2, for which the “IC50 (pVNT)” value was no more than 550 ng/ml.

B3: Ab42 (10x-L8N-c41) (antibody, V domains shown)
VH: EVQLLESGGGLVQPGGSLRLSCAGSGFTFSSYAMSWVRQAPGKGLEWVSSISSSGGLTFYADSVRGRSTISRDHSRNTLYLQMNSLRAEDTALYYCAREQGDSYDDYFDYWGQGTLVTVSS
VL: DIQMTQSPSSLSASVGDRVTITCRASQGIRSSLAWYQQRPGKAPKLLLSAASILESGVPSRFSGSGSGTDYTLTINGLQPDDFATYYCQQYYVTPGITFGGGTKVEIR
Take B3: the “IC50 (pVNT)” value is no more than 550 ng/ml.

B4: Ab41 (10x-L8N-c39) (antibody, V domains shown)
VH: QVQLVQSGAEVKKPGASVKVSCKGSGYTFTDYGISWVRQAPGQGLEWMGWIRAYNGNTDYAQKFQGRVTMTRDTSTTTAYMELRSLRSDDTAVYFCALNLIAAAATPFDHWGQGTLVTVSS
VL: EIVLTQSPGTLSLSRGERATLSCRASQSVSSSYLAWYQQKRGQAPRLLIYGATSRATGIPDRFSGSGSGTDFTLTISRLEPEDFAVYYCQHYGSSPPPFGGGTKVEIR
As for B4, the “IC50 (pVNT)” value was no more than 550 ng/ml.

B5: Ab39 (10x-L8N-c30) (antibody, V domains shown)
VH: QVQLVQSGAEVKKPGSSVKISCKASGDTSSSYTINWVRQAPGQGLEWMGRIIPMFNRANYARKFQGRVTMTADRSTDTAYMEVSSLTSDDTAVYYCARTWIEPHNWFDPWGQGTLVTVSS
VL: EIVLRQSPGTLSLSPGERATLSCRASQSVSGNHLAWYQRKPGQAPRLLIYAASSRATGIPDRFSGSGSGTDFTLTINRLEPEDFAVFYCQQYGTSPPTFGGGTKVEIK
In the case of B5, the “IC50 (pVNT)” value is no more than 550 ng/ml.

B6: Ab47 (10x-L8N-c64) (antibody, V domains shown)
VH: QVQLVQSGAEVKKPGSSVKVSCEASGDTFSRYAITWVRQAPGQGLEWMGRIIPMFGSANYAQKFQGRVSFTADKSTSTASMELSSLRSEDTAVYYCATSPYYSDSGGYYCDYWGQGSLVTVSS
VL: DIQMTQSPSSLSASVGDRVTITCRASQGISNYLAWYQQKPGKAPKLLLYGASRLQSGVPSRFSGSGSGTDYTLTISSLQPEDFATFYCQQYYSAPRTFGQGTKVEIK
For the molecule B6, the “IC50 (pVNT)” value was no more than 550 ng/ml.

B7: Ab49 (10x-L8N-c73) (antibody, V domains shown)
VH: QVQLVQSGAEVKKPGSSVKVSCKASGGTFTTYAIAWVRQAPGQGLEWMGRIIPTLDNPNYAQKFQGRVSITADKSTGTSYMELRSLRSDDTAVYYCAHVSYDSSGPHLSWYFNLWGRGTLITVSS
VL: DIQMTQSPSTLSASVGDRVTITCRASQSIPSRLAWYQHKPGEAPKLLIYEASTLESGVPSRFSGSGSGTEFTLTITSLQPDDFATYFCQGWNAFGGGTKVEIK
For the molecule B7, the “IC50 (pVNT)” value was no more than 550 ng/ml.

B8: Ab26 (G4.2) (antibody, V domains shown)
VH: QVQLVQSGAEVKKPGSSVKVSCKASGGTFSSHTVSWVRQAPGQGLEWMGRIIPPFGIVNYAQKFQGRVTMTADESTSTAYMELSSLRSEDTAVYYCARSNVVVVTEAGWFDPWGQGTLVTVSS
VL: DIQMTQSPSSVSASVGDRVSISCRASQDISSSLAWYQQKPGQAPKVLIYDASTLQSGVPSRFSGSGSGTDFTLTISNLRPDDFATYFCQQAHSFPFTFGPGTKVDIR
On to B8, for which the “IC50 (pVNT)” value is no more than 550 ng/ml.

B9: Ab46 (10x-L8N-c63) (antibody, V domains shown)
VH: B8 VH with Q3H, M70I, R87S
VL: B8 VL with S20T, S22T, D28G, Q42K, Y49F, D81E, F87Y, R107K
In the case of B9, the “IC50 (pVNT)” value is no more than 550 ng/ml.

B10: Ab35 (10x-L8N-c20) (antibody, V domains shown)
VH: QVQLQESGPGLVKPSETLSLTCTVSGDSIYSYSWTWIRQPPGKGLEWIGQLYYNGSTSYNASLKSRVSISLDTSKNQFSLKLRFVTAADTAMYYCARVEYYSNYFDPWGQGTQVTVSS
VL: EIVLTQSPATLSLSPGERATLSCRASQSVGSYLAWYQQKPGQAPRLLIYDASNRVPGIPARFSGSGSGTDFTLTISSLPPEDFAVYYCQQRSDWPPTFGGGTKVEIR
Turning to B10, the “IC50 (pVNT)” value is no more than 550 ng/ml.

B11: Ab44 (10x-L8N-c53) (antibody, V domains shown)
VH: QVQLQQSGAEVKKPGSSVKVSCESSGGTFTSHAINWVRQAPGQRLEWMGRIIPVLGVAAYAQKFQGRVTLTADKFTSTAYMELSSLRSEDTAVYFCARSAYNYDSSGYHFDYWGQGTLVLVSS
VL: DIQMTQSPSTLSASVGDRVTITCRASQSISNWLAWYQQKPGTAPKLLIFKASTLQSGVPSRFSGSGSGTEFTLTISSLQPDDFATYHCQQYHSSRSFGQGTKVEIK
B11: the “IC50 (pVNT)” value is no more than 550 ng/ml.

B12: Ab28 (10x-L8N-c1) (antibody, V domains shown)
VH: QFQLVQSGAEVKKPGSSVKVSCRASGGSFTSHAISWVRQAPGQGFEWMGRIIPMFGIANYAPKFQGRVTMSADKFKDIVYMEVNSLTSEDTALYYCARSQPMTSVTTLWFDPWGQGTLVTVSS
VL: EIVLTQSPGTLSLSPGERATLSCRASEPVGGSYLAWYQQKPGQAPRLLIHGASSRATGIPDRFSGSGSGTDFVLTISRLEPEDFAVYHCQQYASSPYTFGQGTKLEIK
As to B12, the “IC50 (pVNT)” value is no more than 550 ng/ml.

B13: Ab48 (10x-L8N-c72) (antibody, V domains shown)
VH: QVQLQQWGAGLLKPSETLSLTCTVYGGSISGYYWNWIRQPPGKGLEWIGEIDHSGNTNYNSSLKSRITIALDTSKKEISLKVTSVTAADTAVYYCARLDYYHYSQDAWGQGTTVTVSS
VL: EIVLTQSPDFQSVTPKERVTITCRASQSIGASLHWYQLKPNQSPKLLIKYASQSISGVPSRFSGSGSGTDFTLTISSLEAEDAATYYCLQSSNLYSFGQGTKLEIK
With B13, the “IC50 (pVNT)” value is no more than 550 ng/ml.

B14: Ab43 (10x-L8N-c42) (antibody, V domains shown)
VH: EVQLVESGGGLVKPGGSLRLSCAASGFTFSRHTMNWVRQAPGKGLEWVSSIGGSTPLSFYAESVKGRFSISRDNAKSSLFLQMSSLRADDTAVYYCVRDSIASVTTLFDLWGRGTVVTVSS
VL: DIQMTQSPSSLSASVGDRVTITCRASQTIRNYINWYQQRPGKAPRLLIYDASTLQSGVPSRFSGGGSGTDFTLTISSLEPEDFATYYCQQSYVSPPEDSFGQGTKLEIK
Regarding B14, the “IC50 (pVNT)” value was no more than 550 ng/ml.

B15: Ab27 (E12.2) (antibody, V domains shown)
VH: EVQLVESGGGLVQPGGSLRLSCGASGITVSSNYMNWVRQAPGKGLEWVSTLYAGGSTFYADSVKGRFIISRDNSKNTLYLQMNSLRADDTAVYYCARDLVDYGMDVWGQGTTVTVSS
VL: DIQLTQSPSSLSASVGDRVTITCRASQGISSYLAWYQQKPGKAPKLLIYAASTLQSGVPSRFSGSGSGTDFTLTISSLQPEDFATYYCQQLNSYSPFTFGPGTKVDIK
As for B15, the “IC50 (pVNT)” value is no more than 550 ng/ml.
